Source: US20110282030A1 (MAYO FOUNDATION FOR MEDICAL EDUCATION AND RESEARCH, published 2011)
Where no end group is shown, it is not given here.

Columns and labels:
human NPR-A [1] = molecular target: T1, human NPR-A (human, UniProt P16066 33-1061); assay: not told; no binding experiment of DNP on NPR-A is described
T1 construct: whole, on cells; also called hNPR-A; hNPRA
T1 sequence: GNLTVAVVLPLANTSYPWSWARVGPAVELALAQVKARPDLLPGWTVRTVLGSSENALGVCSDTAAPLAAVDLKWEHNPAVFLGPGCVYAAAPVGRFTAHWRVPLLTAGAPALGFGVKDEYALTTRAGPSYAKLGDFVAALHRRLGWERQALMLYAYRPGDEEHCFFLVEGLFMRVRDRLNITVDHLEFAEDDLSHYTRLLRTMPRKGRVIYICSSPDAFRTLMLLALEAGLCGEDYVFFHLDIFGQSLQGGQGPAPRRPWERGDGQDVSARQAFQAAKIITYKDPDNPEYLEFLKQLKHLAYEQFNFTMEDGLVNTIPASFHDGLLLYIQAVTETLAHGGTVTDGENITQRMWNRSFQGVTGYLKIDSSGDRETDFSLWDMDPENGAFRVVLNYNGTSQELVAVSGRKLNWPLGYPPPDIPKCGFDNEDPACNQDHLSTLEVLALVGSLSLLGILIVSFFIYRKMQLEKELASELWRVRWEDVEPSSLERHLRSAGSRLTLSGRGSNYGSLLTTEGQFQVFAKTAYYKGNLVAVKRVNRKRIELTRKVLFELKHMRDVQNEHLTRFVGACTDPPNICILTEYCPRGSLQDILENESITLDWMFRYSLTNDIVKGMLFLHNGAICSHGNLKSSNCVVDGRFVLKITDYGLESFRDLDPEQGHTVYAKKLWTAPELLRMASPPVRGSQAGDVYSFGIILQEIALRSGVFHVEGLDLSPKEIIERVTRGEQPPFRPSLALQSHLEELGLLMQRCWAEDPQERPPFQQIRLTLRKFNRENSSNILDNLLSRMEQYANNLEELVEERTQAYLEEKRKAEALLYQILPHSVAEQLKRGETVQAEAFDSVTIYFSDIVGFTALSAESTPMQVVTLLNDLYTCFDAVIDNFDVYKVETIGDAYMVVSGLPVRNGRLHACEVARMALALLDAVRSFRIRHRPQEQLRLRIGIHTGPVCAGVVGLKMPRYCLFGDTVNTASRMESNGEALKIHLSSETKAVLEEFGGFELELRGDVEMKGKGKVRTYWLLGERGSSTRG

human NPR-C = molecular target: T2, human NPR-C (human, UniProt P17342 27-541); assay: displacement of ^125I-ANP from NPR-C
T2 construct: whole, on cells; also called clearance receptor
T2 sequence: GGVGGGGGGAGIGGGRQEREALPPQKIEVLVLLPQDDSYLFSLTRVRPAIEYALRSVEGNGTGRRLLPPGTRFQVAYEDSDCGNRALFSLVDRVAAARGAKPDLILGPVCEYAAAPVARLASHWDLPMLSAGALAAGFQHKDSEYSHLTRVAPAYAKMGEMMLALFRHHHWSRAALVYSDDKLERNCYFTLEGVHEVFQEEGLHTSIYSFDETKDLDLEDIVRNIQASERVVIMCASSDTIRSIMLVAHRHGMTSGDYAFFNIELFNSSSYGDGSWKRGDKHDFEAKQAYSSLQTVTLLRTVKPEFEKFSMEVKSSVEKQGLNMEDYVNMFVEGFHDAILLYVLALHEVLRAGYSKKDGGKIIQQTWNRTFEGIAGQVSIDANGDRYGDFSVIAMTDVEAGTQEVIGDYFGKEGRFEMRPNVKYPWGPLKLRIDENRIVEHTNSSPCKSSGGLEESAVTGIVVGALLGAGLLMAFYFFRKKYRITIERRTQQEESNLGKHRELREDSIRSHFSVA

human NPR-B = molecular target: T3, human NPR-B (human, UniProt P20594 23-1047); assay: cell-based or functional assay
T3 sequence: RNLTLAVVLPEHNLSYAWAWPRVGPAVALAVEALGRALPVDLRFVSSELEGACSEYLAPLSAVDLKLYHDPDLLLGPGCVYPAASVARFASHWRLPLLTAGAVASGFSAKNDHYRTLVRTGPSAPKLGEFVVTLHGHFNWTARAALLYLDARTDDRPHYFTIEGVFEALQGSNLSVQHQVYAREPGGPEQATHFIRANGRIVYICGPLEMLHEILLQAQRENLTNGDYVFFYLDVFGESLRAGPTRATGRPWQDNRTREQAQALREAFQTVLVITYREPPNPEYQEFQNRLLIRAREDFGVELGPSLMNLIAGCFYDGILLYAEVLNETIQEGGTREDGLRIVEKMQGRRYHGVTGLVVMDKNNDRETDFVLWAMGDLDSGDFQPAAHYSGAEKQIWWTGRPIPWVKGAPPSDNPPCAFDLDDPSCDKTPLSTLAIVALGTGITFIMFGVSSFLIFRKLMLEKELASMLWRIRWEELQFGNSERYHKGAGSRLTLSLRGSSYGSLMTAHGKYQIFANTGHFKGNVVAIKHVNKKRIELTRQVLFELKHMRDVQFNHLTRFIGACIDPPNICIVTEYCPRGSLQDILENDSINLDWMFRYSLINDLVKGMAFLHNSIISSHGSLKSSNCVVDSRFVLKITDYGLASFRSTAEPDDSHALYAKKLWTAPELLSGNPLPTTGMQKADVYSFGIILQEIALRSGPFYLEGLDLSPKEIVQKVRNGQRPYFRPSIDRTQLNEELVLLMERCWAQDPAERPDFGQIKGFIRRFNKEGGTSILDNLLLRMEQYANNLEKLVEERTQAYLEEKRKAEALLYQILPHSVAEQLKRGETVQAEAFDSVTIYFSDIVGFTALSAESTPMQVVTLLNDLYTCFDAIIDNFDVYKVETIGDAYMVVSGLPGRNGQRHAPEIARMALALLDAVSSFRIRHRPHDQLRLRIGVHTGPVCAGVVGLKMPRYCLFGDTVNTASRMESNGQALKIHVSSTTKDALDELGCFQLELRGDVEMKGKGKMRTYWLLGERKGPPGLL

human NPR-A [2] = molecular target: T1, human NPR-A; assay: competition ^125I-ANP binding on whole 293 cells expressing hNPR-A

Binder: EVKYDPCFGHKIDRINHVSNLGCPSLRDPRPNAPSTSA (ligand, ends and bridges not checked; cysteine pairing not given here, also called snake DNP polypeptide) [DNP]
- binding result (human NPR-A [1]): binds

Binder: SLRRSSCFGGRMDRIGAQSGLGCNSFRY (ligand) [Human ANP]
- binding result (human NPR-C): binds

Binder: GLSKGCFGLKLDRIGSMSGLGC (ligand) [Human CNP]
- EC50, cellular cGMP elevation in 293 cells expressing hNPR-B (human NPR-B): 38 nM
- binding result (human NPR-C): binds
- binding result (human NPR-A [2]): no binding (tested: 10 µM)
